The Kd is the equilibrium constant for the complex coming apart. Low values mean a tighter complex, high ones a looser complex.

Non-standard residues stand in square brackets, D forms with d. No end group written: not given here.

The text below walks through data of paper PMC9917023 (2023).

The target in one assay is T1, tau R3 domain 304-336 (Homo sapiens, UniProt P10636).
T1 chain: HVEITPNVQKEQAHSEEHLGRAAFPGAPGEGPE
Put plainly: SPR. Background: In SPR one partner is held on a chip, and binding of the other changes the refractive index at the surface.

The target of assay [1] is T2, full-length tau 441 (Homo sapiens, UniProt P10636). In words: SPR.
The target of assay [2] is T2, full-length tau 441. In words: MST.

T2 sequence (P10636 2-758): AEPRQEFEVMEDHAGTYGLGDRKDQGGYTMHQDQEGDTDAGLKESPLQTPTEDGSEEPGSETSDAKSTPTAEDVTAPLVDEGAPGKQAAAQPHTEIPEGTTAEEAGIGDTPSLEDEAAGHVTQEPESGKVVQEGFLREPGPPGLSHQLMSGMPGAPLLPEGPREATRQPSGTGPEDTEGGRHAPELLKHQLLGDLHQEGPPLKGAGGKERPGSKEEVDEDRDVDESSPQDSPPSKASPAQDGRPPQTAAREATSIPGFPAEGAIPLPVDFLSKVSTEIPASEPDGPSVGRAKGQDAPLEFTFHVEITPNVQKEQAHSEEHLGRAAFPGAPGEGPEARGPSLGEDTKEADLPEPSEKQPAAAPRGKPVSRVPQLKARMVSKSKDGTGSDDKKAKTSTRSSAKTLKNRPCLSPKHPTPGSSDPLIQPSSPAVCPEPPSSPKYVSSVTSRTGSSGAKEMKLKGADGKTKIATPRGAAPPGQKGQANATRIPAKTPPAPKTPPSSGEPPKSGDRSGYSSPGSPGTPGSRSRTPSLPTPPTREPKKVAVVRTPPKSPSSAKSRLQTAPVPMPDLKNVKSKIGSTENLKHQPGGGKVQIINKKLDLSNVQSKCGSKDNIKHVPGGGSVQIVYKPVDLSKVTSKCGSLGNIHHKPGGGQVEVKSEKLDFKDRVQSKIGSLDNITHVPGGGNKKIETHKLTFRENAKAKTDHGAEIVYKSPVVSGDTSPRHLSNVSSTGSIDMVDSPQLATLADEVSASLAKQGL

B1: TF2D-5a (peptide)
chain: [dD]GG[dY][dQ][dI][dL][dF][dK][dI][dP]GG[dH][dI][dH][dR][dR][dR][dR][dR]-NH2
modifications: N-terminus assumed
SMILES: CC[C@@H](C)[C@@H](NC(=O)[C@@H](Cc1c[nH]cn1)NC(=O)CNC(=O)CNC(=O)[C@H]1CCCN1C(=O)[C@H](NC(=O)[C@@H](CCCCN)NC(=O)[C@@H](Cc1ccccc1)NC(=O)[C@@H](CC(C)C)NC(=O)[C@H](NC(=O)[C@@H](CCC(N)=O)NC(=O)[C@@H](Cc1ccc(O)cc1)NC(=O)CNC(=O)CNC(=O)[C@H](N)CC(=O)O)[C@H](C)CC)[C@H](C)CC)C(=O)N[C@H](Cc1c[nH]cn1)C(=O)N[C@H](CCCNC(=N)N)C(=O)N[C@H](CCCNC(=N)N)C(=O)N[C@H](CCCNC(=N)N)C(=O)N[C@H](CCCNC(=N)N)C(=O)N[C@H](CCCNC(=N)N)C(N)=O
In the case of B1, the Kd was determined as 0.007 nM with tau R3 domain 304-336 and 6.1 nM in the assay with full-length tau 441 [1]. As for [dD]GG[dY][dQ][dI][dL][dF][dK][dI][dP]GG[dH][dI][dH]-NH2 (also: CF633 label, position not given here), the Kd with full-length tau 441 [2] stood at 0.308 nM.

B2: TF2D-5 (peptide)
chain: [dD]GG[dY][dQ][dI][dL][dF][dK][dI][dP]GG[dH][dI][dH]-NH2
modifications: N-terminus assumed
SMILES: CC[C@@H](C)[C@@H](NC(=O)[C@@H](Cc1c[nH]cn1)NC(=O)CNC(=O)CNC(=O)[C@H]1CCCN1C(=O)[C@H](NC(=O)[C@@H](CCCCN)NC(=O)[C@@H](Cc1ccccc1)NC(=O)[C@@H](CC(C)C)NC(=O)[C@H](NC(=O)[C@@H](CCC(N)=O)NC(=O)[C@@H](Cc1ccc(O)cc1)NC(=O)CNC(=O)CNC(=O)[C@H](N)CC(=O)O)[C@H](C)CC)[C@H](C)CC)C(=O)N[C@H](Cc1c[nH]cn1)C(N)=O
B2 had a Kd with full-length tau 441 [1] of 1.3 nM.

[dD]GG[dY][dQ][dI][dL][dF][dK][dI][dP]GG[dH][dI][dH][dR][dR][dR][dR][dR]-NH2 (also: CF633 label, position not given here) came in with a Kd with full-length tau 441 [2] of 11.7 nM.
